# Changes are numbered by the printed parent chain.
# B1: human monoclonal antibody 2D5 (antibody, V domains shown)
# VH: QVQLVESGGGVVQPGRSLRLSCAASGFTFSSYGMHWVRQAPGKGLEWVAVIWNDGSNKYYADSVKGRFTISRDNSKNTLYLQMNSLRAEDTAVYYCARENWGEYFDYWGQGTLVTVSS
# VL: AIQLTQSPSSLSASVGDRVTITCRASQGISSALAWYQQKPGKAPKLLIYDASSLKSGVPSRFSGSGSGTDFTLTISSLQPEDFATYYCQQFNSYWTFGQGTKVEIK
# notes: also called HuMab 2D5
# B2: human monoclonal antibody 5D5 (antibody, V domains shown)
# VH: QVQLVESGGGVVQPGRSLRLSCAASGFTFSSYGMHWVRQAPGKGLEWVAVIWYDGSNKYYADSVKGRFTISRDNSKNTLYLQMNSLRAEDTAVYYCAREGNRSHYIPFAYWGQGTLVTVSS
# VL: DIQMTQSPSSLSASVGDRVTITCRASQGISSWLAWYQQKPEKAPKSLIYAASSLQSGVPSRFSGSGSGTDFTLTISSLQPEDFATYYCQQYNSYPRTFGGGTKVEIK
# notes: also called HuMab 5D5; 5D5-2E10
# B3: human monoclonal antibody 2H4 (antibody, V domains shown)
# VH: EVHLVESGGGLVQPGGSLRLSCAASGFTFSSYWMSWVRQAPGKGLEWVANINQYGSEKYYVDSVKGRFTISRDNAKNSLYLQMNSLRAEDTAVYYCARDSPYYYGSGSYYRGYWYFDLWGRGTLVTVSS
# VL: B2 VL with R96P, G100Q, K103R, V104L
# notes: also called HuMab 2H4
# Biological target: T1, Bacillus anthracis protective antigen, cleaved 63 kD form (PA63) (Bacillus anthracis, UniProt P13423 197-764)
# T1 construct: also called cleaved protective antigen (63 kD); active fragment of PA
# Test: ELISA, plate coated with PA63 (FIG. 11)
# T1 sequence (P13423 197-764 limits assumed): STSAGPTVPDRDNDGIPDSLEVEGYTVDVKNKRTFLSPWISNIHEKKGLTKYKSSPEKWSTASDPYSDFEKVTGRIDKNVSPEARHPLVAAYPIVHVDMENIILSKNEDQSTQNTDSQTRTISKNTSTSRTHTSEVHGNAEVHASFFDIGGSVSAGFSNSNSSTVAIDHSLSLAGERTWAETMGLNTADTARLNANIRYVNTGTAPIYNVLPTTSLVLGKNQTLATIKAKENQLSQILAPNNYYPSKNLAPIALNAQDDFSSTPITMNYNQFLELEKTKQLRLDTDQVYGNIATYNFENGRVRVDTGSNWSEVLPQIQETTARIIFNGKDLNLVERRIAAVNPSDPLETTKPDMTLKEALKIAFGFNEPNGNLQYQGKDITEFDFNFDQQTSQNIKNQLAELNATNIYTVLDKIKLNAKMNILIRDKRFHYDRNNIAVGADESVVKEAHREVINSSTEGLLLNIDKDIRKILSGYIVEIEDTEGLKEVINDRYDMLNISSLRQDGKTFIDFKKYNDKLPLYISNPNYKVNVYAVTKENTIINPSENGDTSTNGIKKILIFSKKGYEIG
row,Binder,binding result
1,B1,binds
2,B2,binds
3,B3,binds

# Biological target: T2, Bacillus anthracis protective antigen, full-length 83 kD form (PA83) (Bacillus anthracis, UniProt P13423 30-764)
# T2 construct: mature; also called rPA-83; full length PA 83
# Test: ELISA, plate coated with PA83 (FIG. 11)
# T2 sequence (P13423 30-764): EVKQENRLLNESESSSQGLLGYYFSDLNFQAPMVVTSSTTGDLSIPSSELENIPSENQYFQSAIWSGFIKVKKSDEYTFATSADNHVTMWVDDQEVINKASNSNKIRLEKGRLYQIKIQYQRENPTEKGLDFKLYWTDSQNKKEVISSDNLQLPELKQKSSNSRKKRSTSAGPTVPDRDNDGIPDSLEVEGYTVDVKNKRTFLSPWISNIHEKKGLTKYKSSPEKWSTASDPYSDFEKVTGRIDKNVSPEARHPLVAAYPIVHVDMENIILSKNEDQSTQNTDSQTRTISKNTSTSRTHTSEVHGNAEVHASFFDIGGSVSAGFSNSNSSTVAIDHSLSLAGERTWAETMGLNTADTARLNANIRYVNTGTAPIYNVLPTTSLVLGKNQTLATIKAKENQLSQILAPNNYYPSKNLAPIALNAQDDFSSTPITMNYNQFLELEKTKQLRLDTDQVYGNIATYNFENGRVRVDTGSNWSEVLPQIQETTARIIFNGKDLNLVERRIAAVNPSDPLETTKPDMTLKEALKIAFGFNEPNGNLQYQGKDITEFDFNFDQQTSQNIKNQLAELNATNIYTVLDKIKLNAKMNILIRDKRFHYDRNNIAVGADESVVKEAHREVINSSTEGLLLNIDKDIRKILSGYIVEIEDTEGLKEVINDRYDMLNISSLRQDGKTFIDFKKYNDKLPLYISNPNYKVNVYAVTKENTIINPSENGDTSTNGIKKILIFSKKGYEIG
row,Binder,binding result
1,B1,binds
2,B2,binds
3,B3,binds

# From patent US20050287149A1 (Bristol-Myers Squibb, published 2005)
